Measured values: the RNAGym collection of RNA variant scans (doi:10.1073/pnas.2313332121)
This sample holds only a part of the variants without activity.

B1: TPR 5TU (parent)
chain: GGAUCUUCUCGAUCUAACAAAAAAGACAAAUCUGCCACAAAGCUUGAGAGCAUCUUCGGAUGCAGAGGCGGCAGCCUUCGGUGGCGCGAUAGCGCCAACGUUCUCAACUAUGACACGCAAAACGCGUGCUCCGUUGAAUGGAGUUUAUCAUG

Variants of: B1
Assay: polymerase ribozyme fitness, log enrichment relative to wild type (log ratio); higher = more active; in vitro selection for triplet polymerase activity
Procedure, shortened: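 Each subunit of a heterodimeric triplet polymerase ribozyme was mutagenized into a library by PCR, transcribed, and subjected to one round of in vitro selection, run in triplicate. Libraries were annealed with a biotinylated primer, the partner subunit and triplets, incubated frozen at −7 °C, and extended constructs were gel-excised, captured on streptavidin beads and recovered by RT-PCR. Input and output libraries were sequenced on Illumina, keeping genotypes with ≥10 input reads and ≥1 read per output. Fitness is log base 2 of genotype enrichment divided by wild-type enrichment, from inverse-variance-weighted replicate averages.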

| Variant | polymerase ribozyme fitness (log ratio) |
| --- | --- |
| A66C C76U A91U A97U C114U A142G | ≤ -4.2 |
| A66G C69U | ≤ -4.2 |
| A60C U61A | -2.27 |
| A60U G141U | 0.392 |
| G62U U109C C116U C131U A147U | -1.94 |
| A60C A120U A137C G140U | ≤ -4.2 |
| G67U C87G U130A | ≤ -4.2 |
| G58U G92A | -2.51 |
| G59A C99G | -1.14 |
| G59C A60G C85A | -1.88 |
| U61G G71U C87U G143A | ≤ -4.2 |
| A60C C96U A142C G143A | ≤ -4.2 |
| A60U C87U U135C | -3.65 |
| A66G C85A A91G U148A | ≤ -4.2 |
| C63U C99G U151A | ≤ -4.2 |
| G62C A137C U148G | ≤ -4.2 |
| A60G U61G C76A G124C C125G | ≤ -4.2 |
| G59A G94U C95A U104C | -2.63 |
| G59C A119U C149U | -0.775 |
| G59C G67A U78G C79A C87A G143A | ≤ -4.2 |
| C63U A73G | -0.225 |

| Variant | polymerase ribozyme fitness (log ratio) |
| --- | --- |
| G65A C96U G112C A115G U144A | ≤ -4.2 |
| G62A A64C C85U C95G C105G A121U U134G U139G U151C | ≤ -4.2 |
| C63U G70C C87G A89G C96A G126C | ≤ -4.2 |
| A64G A91C A115G U145C | -3.96 |
| A60G A66C G94U C108U C125U U139C | -4 |
| A66C G92A | ≤ -4.2 |
| G67U C85A C93U | ≤ -4.2 |
| G59C A73G C85A | -2.84 |
| G59C C96G C118G A142U | -3.61 |
| U61A G117A | -0.98 |
| C63U G80A A97G A110G | -4.19 |
| A60G A89C U104G C108G | ≤ -4.2 |
| G59A A142G | -0.65 |
| A60U G86A A150C | ≤ -4.2 |
| A64U C87A C95U U139A | ≤ -4.2 |
| G58U G86A C87A | ≤ -4.2 |
| G62C C72U C85U C108U | ≤ -4.2 |
| C63U C85U | -0.275 |
| G65A C114A | -3.39 |
| G59C C95G C103U G126A | -2.28 |
| A60G C95A U101C | 0.139 |

| Variant | polymerase ribozyme fitness (log ratio) |
| --- | --- |
| A64G C99A | -3.82 |
| A64C G83C G141A | ≤ -4.2 |
| U61G C116A | -0.386 |
| G59C A60U G68A C75A C108A | -4.15 |
| A60C C85U | -1.01 |
| G59A A137U G141C | -3.95 |
| G59C C85G | -1.64 |
| A60C C93A A98U A122C | -2.61 |
| U61G C93G A98U A138C | ≤ -4.2 |
| G59A C75U C85U U144A | -1.61 |
| C63U G68A G83C A115C U144C C149A | ≤ -4.2 |
| G59C G83A C103U A122G | -0.809 |
| A60G G67A U78G C96G A120U G140U A147G | ≤ -4.2 |
| A60C G92U A97G | -2.29 |
| U61C G67A G68C C79U A98G | ≤ -4.2 |
| G59A C85A A115G C123U | -2.65 |
| G58U G83C | -0.165 |
| G59A A60C U61A G81A C103G | ≤ -4.2 |
| G58U G126U A150C | -4.03 |
| G59A G62A G86U A107C | ≤ -4.2 |
| A66G C96U | -3.66 |

| Variant | polymerase ribozyme fitness (log ratio) |
| --- | --- |
| G59C C87G | ≤ -4.2 |
| A60U C85G A89U | ≤ -4.2 |
| U61A A107C G128U U139A | ≤ -4.2 |
| A60G G143U | -1.77 |
| G59C A60C C87G | ≤ -4.2 |
| C63G G81U G92A G117C C118U G143U | ≤ -4.2 |
| U61A C85A C96A A121G | ≤ -4.2 |
| G62A C93A | -1.93 |
| G59A A60C G126A | -0.62 |
| A66G C87U | -3.68 |
| G65A G74C G140U A147G | ≤ -4.2 |
| A60G A91G | -2.73 |
| G62A G86A A122C | -1.02 |
| A60G C69A A91U A97U U134C | ≤ -4.2 |
| A60C C99G U101G | ≤ -4.2 |
| G59C G92U C105A C125A C149U | ≤ -4.2 |
| G58U G59U C96G C123A C149U | -3.08 |
| A60G C96U U101G G128A | -3.75 |
| U61C G70A | -4.13 |
| G59C G68C C118G | -4.15 |
| G62A C75U | -0.822 |
